The source of these data is the nanobody polyreactivity screen of Harvey et al. (2022).

A short description of the data set: yeast display, Sf9 membrane polyspecificity reagent, FACS + sequencing; frameworks hold sequencing errors. The procedure, abridged: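 Synthetic nanobody libraries on Saccharomyces cerevisiae BJ5465 were galactose-induced for 36–48 hours, stained 1 hour at 4 °C with 10% biotinylated, detergent-solubilized Sf9 membrane reagent and enriched on streptavidin microbeads. FACS then separated cells into low and high (top ~1%) gates by anti-HA (expression) and streptavidin (reagent binding) fluorescence. Genes were colony-PCR amplified, MiSeq 2 × 250 sequenced and CDR-length filtered. A clone's polyreactivity label is that of its gate of origin.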
Regarding “QVQLVESGGGLVQAGGSLRLSCAASGRTFFGYAMGWYRQAPGKERELVAAITSSGGRTYYADSVKGRFTISRDNAKNTVYLQMNSLKPEDTAVYYCNTVLSFRSVNIYRGRGDYWGQGSQVTVSS”, the “polyreactivity (PSR sort gate)” value is “high polyreactivity”. The value for “QVQLVESGGGLVQAGGSLRLSCAASGRTFFIYAMGWYRQAPGKERELVARITGGGRTYYADSVKGRFTISRDNAKNTVYLQMNSLKPEDTAVYYCAKRSYVTYPPYDYWGQGSQVTVSS” was “high polyreactivity”; that for “QVQLVESGGGLVQAGGSLRLSCAASGRTFFKNALGWYRQAPGKERELVASISSRSGTTYYADSVKGRFTISRDNAKNTVYLQMNSLKPEDTAVYYCAASRNRYSYGYWGQGTQVTVSS” was “high polyreactivity”; that for “QVQLVESGGGLVQAGGSLRLSCAASGRTFFKYDMGWYRQAPAKERELVAAITWTGGSTYYADSVKGRFTISRDYAKNTVYLQMNSLKPEDTAVYYCAAADYYYVEYDYWGQGTQVTVSS” was “low polyreactivity”. As to “QVQLVESGGGLVQAGGSLRLSCAASGRTFFKYVMGWYRQAPGKERELVAAISYRSGSTYYADSVKGRFTISRDNAKNTVYLQMNSLKPEDTAVYYCAKEPPPVKGDYWGQGTQVTVSS”, the “polyreactivity (PSR sort gate)” value is “low polyreactivity”.

On to “QVQLVESGGGLVQAGGSLRLSCAASGRTFFLYAMGWYRQAPGKEREFVATISYGGGSTYYADSVKGRFTISRDNAKNTVYLQMNSLKPEDTAVYYCNALNTSQYAEGTSDYDGNMGYWGQGTQVTVSS”, for which the “polyreactivity (PSR sort gate)” value is reported as “low polyreactivity”. The value for “QVQLVESGGGLVQAGGSLRLSCAASGRTFFPYAMGWYRQAPGKERELVAAITRGGSTNYADSVKGRFTISRDNAKNTVYLQINSLKPEDTAVSYCATVVRYSNARGDYWGQGTQVTVSS” was “low polyreactivity”; that for “QVQLVESGGGLVQAGGSLRLSCAASGRTFFPYAMGWYRQAPGKERELVATIRYRGGSTSYADSVKGRFTISRDNAKNTVYLQMNSLKPEDTAVYYCAARLQRTPRVYSSYFEYDYWGHGTQVTVSS” was “low polyreactivity”; that for “QVQLVESGGGLVQAGGSLRLSCAASGRTFFRNAMGWYRQAPGKERELVAAISSSGGSTYADSVKGRFTISRDNAKNTVYLQMNSLKPEVTAVYYCATRFQYTRTWYSRKYDYWGQGTQVTVSS” was “high polyreactivity”. As for “QVQLVESGGGLVQAGGSLRLSCAASGRTFFRYAMGWYRQAPGKERELVASISGGITNYADSVKGRFTISRDNAQNTVYLQMNSLKPEDTAVYYCAADDYPYSYSSQFQYTGYEYWGQGTQVTVSS”, the entry is “low polyreactivity”; as for “QVQLVESGGGLVQAGGSLRLSCAASGRTFFRYVMGWYRQAPGKERELVAAISTRGGSTYYADSVKGRFTISRDNAKNTVYLQMNSLKPEDTAVYYCAARFKVRDYSYNYWGQGTQVTVSS”, “high polyreactivity”. As for “QVQLVESGGGLVQAGGSLRLSCAASGRTFFVNAMGWYRQAPGKERELVAGISIGGRTSYADSVKGRFTISRDNAKNTVYLQMNSLKPEDTAVYYCATSYFPWSRKRYGYWGQGTQVTVSS”, the entry is “high polyreactivity”. Consider “QVQLVESGGGLVQAGGSLRLSCAASGRTFFVNAMGWYRQAPGKERELVAVISTSGGSTSYADSVKGRFTISRDNPKYTVYFQMNSLKPEDTAVYYCAALVLGPYVSSFVYQQDDSWGLGTQVTVSS”, for which the “polyreactivity (PSR sort gate)” value is “high polyreactivity”. As for “QVQLVESGGGLVQAGGSLRLSCAASGRTFFWYAMGWYRQAPGKEREFVADINSRGTSTYADSVKGRFTISRDNAKNTVYLQMNSLKPDDTAVYYCAAYRGHLKRYYYWGQGTQVTVSS”, the entry is “high polyreactivity”; as for “QVQLVESGGGLVQAGGSLRLSCAASGRTFFWYAMGWYRQAPGKERELVAAISSSTRTKYADSVKGRFTISRDNAKNTVYLQMNSLKPEDTAVYYCNAKGWVWPFPSYYPYDSWGQGTQVTVSS”, “high polyreactivity”; as for “QVQLVESGGGLVQAGGSLRLSCAASGRTFFYNAMGWYRQAPGKERELVATITWTGDSTYADSVKGRFTISRDNAKNTVYLQMNSLKPEDTAVYYCAAGKPVILTGDYDYWGQGTQVTVSS”, “low polyreactivity”. As for “QVQLVESGGGLVQAGGSLRLSCAASGRTFFYNGMVWYIQAPGKQRELVAAISGSGSRTYYADSVKGRFTISRDNAKNTVYLQMNSLKPEDTAVYYCAATRVISHYRFDYWGQGTEVTVSS”, the entry is “high polyreactivity”; as for “QVQLVESGGGLVQAGGSLRLSCAASGRTFFYYAMGSYRQAPGKERELVATITKRGGSTYYADSVKGRFTISRDNAKNTVYLQMNSLKPEDTAVYYCNAAGNPVSRYHYDYWGQGTQVTVSS”, “high polyreactivity”.

For the sequence “QVQLVESGGGLVQAGGSLRLSCAASGRTFGANDMGWYRQAPGKDSELVAAITYSGGRTNYADSVKGRFTISRDNAKNSVYLQMNSLKPEDTAVYYCAAGGWRDRSRYNYWGQGTQVTVSS”, the “polyreactivity (PSR sort gate)” value was “high polyreactivity”. As for “QVQLVESGGGLVQAGGSLRLSCAASGRTFGAYAMGLYRQEPGKETELVAAISKSGGRTYYADSVKGRFTISRDYAKNTVYLLMNSLKPEDTAVYYCNARGFRGEYDYWGEGTQVTVSS”, the “polyreactivity (PSR sort gate)” value was “high polyreactivity”. As for “QVQLVESGGGLVQAGGSLRLSCAASGRTFGAYAMGWYRQAPGKERELVAAISNGGRTYYADSVKGRFTISRDNAKNTVYLQMNSLKPEDTAVYYCNKVRSPWYDSWGQGTQVTVSS”, the entry is “high polyreactivity”; as for “QVQLVESGGGLVQAGGSLRLSCAASGRTFGAYAMGWYRQAPGKERELVATITVSGGSTYYADSVKGRFTISRDNAMNTVSLQLNSLKPEDTAVYYCATEFYEEYWGQGTQVTVSS”, “low polyreactivity”. Consider “QVQLVESGGGLVQAGGSLRLSCAASGRTFGDYAMGWYRQAPGKERELVAAISSSGGRTYYADSVKGRFTISRDNAKNTVYLQMNSLKPEDTAVYYCAAQSKYYQYYSWGQGTQVTVSS”, for which the “polyreactivity (PSR sort gate)” value is listed as “high polyreactivity”. As for “QVQLVESGGGLVQAGGSLRLSCAASGRTFGEYAMGWYRQAPGKERELVADITNGSRTYYADSVKGRFTISRDNAKNTVYLQMNSLKPEDTAVYYCAADWWKEVDYWGQGTQVTVSS”, the entry is “low polyreactivity”; as for “QVQLVESGGGLVQAGGSLRLSCAASGRTFGEYTMGWYRQAPGKERELVAAISSAGRTNYADSVKGRFTISRDNAKNTVYLQMNSLKPEDTAVYYCAADWTDDVPGYDYWGQGTQVTVSS”, “low polyreactivity”; as for “QVQLVESGGGLVQAGGSLRLSCAASGRTFGFNAMGWYRQAPGKDRELVASITRGGRTDYADSVKGRFTISRDNAKNTVYLQMNSLKPEDTAVYYCAAQSGWHHTGGMYYWGQGTQVTVSS”, “high polyreactivity”. The value for “QVQLVESGGGLVQAGGSLRLSCAASGRTFGFYGMGWYRQAPGKEREFVAAITRRGGSTYYADSVKGRFTISRDNAKNTVYLQMNRLKPEDTAVYYCAAGYSSRYRGGLDYWGQGTQVTVSS” was “high polyreactivity”. The value for “QVQLVESGGGLVQAGGSLRLSCAASGRTFGFYTMGCYRQAPGKERELVAAISWRGGSTYYADSVKGRFTISRDNAKNTVYLQMYSLKPEDTAVYYCAVRTNFGKMYYWGQGTQVTVSS” was “high polyreactivity”; that for “QVQLVESGGGLVQAGGSLRLSCAASGRTFGFYTMGWYRQAPGKERELVAGISRGGSTTYADSVKGRFTISRDNAKNTVYLQMNSLKPEDTAVYYCNADRSHYWLPYGVRFDYWGQGTQVTVSS” was “low polyreactivity”; that for “QVQLVESGGGLVQAGGSLRLSCAASGRTFGGNAMGWYRQAPGKERELVAAINSDGGRTYYADSVKARFTISRDNAKNTVYLQMNSLKPEDTAVYYCNRAYRKSYTGYGYDYWGQGTQVTVSS” was “high polyreactivity”. For the sequence “QVQLVESGGGLVQAGGSLRLSCAASGRTFGGNAMGWYRQAPGKERQLVASISSSGGRTYYAVSVKGRFTISRDNAKNTVYLQMNSLKPEDTAVYYCAVAWNVRGVGARQRYIYGYWGQGTQVTVSS”, the “polyreactivity (PSR sort gate)” value is given as “high polyreactivity”. As for “QVQLVESGGGLVQAGGSLRLSCAASGRTFGGNVMGWYRQAPGKERELVAAITWSGGRTYYADSVKGRFTISRDNAKNTVYLQMNSLKPEDTAVYYCNARNGFTVKKFYYWGQGTQVTVSS”, the entry is “high polyreactivity”; as for “QVQLVESGGGLVQAGGSLRLSCAASGRTFGGYAMGWYRQAPGKERELVADITSSGSTTYYADSVKGRFTISRDNSKNNVYLERYSLKPEDTAVYYCNAEGYSPVLYDYWGQGTQVTVSS”, “low polyreactivity”. As for “QVQLVESGGGLVQAGGSLRLSCAASGRTFGGYAMVWYRQAPGKERELVATITKNGGSTYYADSVKGRFTISRDNAKNTVYVQMNSLKPEVTAVYYCATGSRGYKASPQWRDYWGQGTQVTVSS”, the entry is “high polyreactivity”; as for “QVQLVESGGGLVQAGGSLRLSCAASGRTFGHNAMGRYRQAPGKEREFVAAITRRGGSTYYADSVKGRFTISRDNAKNTVYLQMNSLKPEDTAVYYCATRDYVNGPGIFNYWGQGTQVTVSS”, “low polyreactivity”; as for “QVQLVESGGGLVQAGGSLRLSCAASGRTFGINAMGWYRQAHGKERELVAVISFGDGGTYYADSVKGRFTISRDNAKNTVYLQMNSLKPEDTAVYYCATDYQSTSVWGGHFVINPYDYWGQGTQVTVSS”, “low polyreactivity”. “QVQLVESGGGLVQAGGSLRLSCAASGRTFGIYAMGWYRQAPGKERELVAAITGRGGSTHYADSVKGRFSISRDNAKNTVYLQMNSLKPEDTAVYYCAADYRYNRGITSNKDYDYWGQGTQVTVSS”: the “polyreactivity (PSR sort gate)” value is reported as “low polyreactivity”. The value for “QVQLVESGGGLVQAGGSLRLSCAASGRTFGKNAMGWYRQAPGKEMEFVAAITSRGGSTYYADSVKGRFTISRDNAKNTVYLQLNSLIPVDTAVYYCYGEYKRPSQRTEHYYWGQGSQVTVSS” was “low polyreactivity”; that for “QVQLVESGGGLVQAGGSLRLSCAASGRTFGKNAMGWYRQAPGKERELVAAISFSGGRTYYADSVKGRFTISRDNANNTVYLQMNSLKPEDTAVYYCAARGSRRGTWYDYWGQGTQVTVSS” was “high polyreactivity”. For “QVQLVESGGGLVQAGGSLRLSCAASGRTFGKNAMGWYRQAPGKERELVAAISWSGGRTYYADSVKGRFTISRDNAKNTVYLQMNSVKPVDTAVYYCATASYRNPSDYWGQGTQVTVSS”, the “polyreactivity (PSR sort gate)” value is on record as “high polyreactivity”.
